Laboratory results taken from PMC9514091 (2022).

B1: host PD-1-Fc fusion protein (Fc fusion)
chain: LDAPSRPWSPLTFSPARLTVPEGANATFTCSFSSKPEHFVLNWYRMSPSNQTDKLAAFPEDRSQPGRDRRFHVTPLPGGRHFHMSIMAAQRNDSGVYFCGAIYLPPKTQINESRPAELT
B2: host PD-L1-Fc fusion protein (Fc fusion)
chain: FTITVPKDLYVVEYGSNVTLECRFPVDKQLNLLALVVYWEMEDKKIIQFVNGEEDLNVQHSSYNQRALLLKNQLPLGKAALQITDVKLQDAGIYCCLISYGGADYKRITLKVNASYRKINQTISVDPVTSEHELMCQAEGYPEAEVIWTSSDHRVLSGKTTITSSKREEKLFNVTSTLRINTTANEIFYCIFRRLGHEENSTAELV

Key:
De2-Fc fusion protein = De2-Fc fusion protein (Tursiops truncatus gammaherpesvirus 1); experiment: SPR
[1] = target: B1; experiment: SPR

Binder	koff (De2-Fc fusion protein)	koff [1]
B1	0.000696 s⁻¹	
B2		0.000488 s⁻¹
